Results: publication PMC11289891, “Selection and characterization of a peptide-based complement modulator targeting C1 of the innate immune system†” (RSC Chemical Biology, 2024)
Positions of bridges follow the written chain, without caps; N, C: chain ends.

Target: T1, C1q (full-length; ligand binding and scaffolding part of the C1 complex) (human (endogenous in human serum), UniProt P02745 23-245; P02746 28-253; P02747 29-245)
T1 construct: complement C1q subunit A, human; complement C1q subunit B, human; complement C1q subunit C, human; In serum and in the bought C1 protein C1q stands in the C1 complex with the proteases C1r and C1s (C1r2s2); in the ELISAs it was detected with anti-C1q; also called gC1q (globular head domain of full-length C1q); source: endogenous, normal human serum (Complement Technology); purified C1 protein …
Assay: ELISA; titration of purified cL3-Bt bound to streptavidin-coated plates, 1% normal human serum in RPMI, 37 °C 1 hour, C1q detected with rabbit anti-C1q
Details: one partner purified

T1 sequence (P02745 23-245, chain 1 of 3): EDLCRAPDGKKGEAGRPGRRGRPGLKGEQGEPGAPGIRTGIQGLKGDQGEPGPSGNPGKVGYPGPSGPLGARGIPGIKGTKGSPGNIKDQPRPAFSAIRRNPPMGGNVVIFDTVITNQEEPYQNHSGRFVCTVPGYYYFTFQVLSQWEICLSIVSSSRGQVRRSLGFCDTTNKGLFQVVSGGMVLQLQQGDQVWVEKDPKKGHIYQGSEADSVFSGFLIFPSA
T1 sequence (P02746 28-253, chain 2 of 3): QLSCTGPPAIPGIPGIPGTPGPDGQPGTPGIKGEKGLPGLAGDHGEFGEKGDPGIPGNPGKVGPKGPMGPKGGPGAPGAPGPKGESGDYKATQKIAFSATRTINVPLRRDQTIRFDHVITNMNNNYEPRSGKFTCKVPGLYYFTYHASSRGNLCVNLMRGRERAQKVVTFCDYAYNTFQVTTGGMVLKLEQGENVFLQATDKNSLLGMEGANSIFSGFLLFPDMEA
T1 sequence (P02747 29-245, chain 3 of 3): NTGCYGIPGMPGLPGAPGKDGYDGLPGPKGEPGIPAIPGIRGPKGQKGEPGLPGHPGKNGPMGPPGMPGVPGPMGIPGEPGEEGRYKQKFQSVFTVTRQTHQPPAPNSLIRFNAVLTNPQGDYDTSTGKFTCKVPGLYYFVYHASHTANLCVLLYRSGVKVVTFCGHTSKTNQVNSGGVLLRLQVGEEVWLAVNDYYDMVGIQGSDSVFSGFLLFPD

EC50: ~6 µM
B1: cyclic-L3, biotinylated (cL3-Bt) (peptide)
chain: {CH2CO}-YTVTFYPDPFTLQFIACGS-{K(biotin)}
modifications: thioether N-17
